B1: Azoarcus group I ribozyme (parent)
chain: GUGCCUUGCGCCGGGAAACCACGCAAGGGAUGGUGUCAAAUUCGGCGAAACCUAAGCGCCCGCCCGGGCGUAUGGCAACGCCGAGCCAAGCUUCGGCGCCUGCGCCGAUGAAGGUGUAGAGACUAGACGGCACCCACCUAAGGCAAACGCUAUGGUGAAGGCAUAGUCCAGGGAGUGGCGAAAGUCACACAAACCGG

Variants of: B1
Assay: reverse-splicing fitness (ratio to wild type); higher = more active; in vitro selection; Mg2+ level not given
Procedure, shortened: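 An in vitro group I ribozyme library with randomized positions was T7-transcribed and gel-purified. In triplicate, 10 pmol RNA in EPPS pH 7.5 was reacted with 50 pmoles of a 30-nt RNA substrate for 1 h at 37 °C across several added MgCl2 levels (1–48 mM), then stopped with EDTA. Products were reverse transcribed from a substrate-complementary primer, PCR-amplified and sequenced (HiSeq 4000). Fitness is a variant's read proportion after selection over that before, normalised to wild type.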
C82A A111C A120G A145C C169U U176G showed a reverse-splicing fitness of 0.00467. C82A A111C A120G A145C C169U U176A showed a reverse-splicing fitness of 0.0138. For C82A A111C A120C A145U U176G, the reverse-splicing fitness was 0.00692. Work on C82A A111C A120C A145U U176A yielded a reverse-splicing fitness of 0.0147. Variant C82A A111C A120C A145U U176C has a reverse-splicing fitness of 0.0164. Work on C82A A111C A120C A145U C150U C169U U176G yielded a reverse-splicing fitness of 0.00824. In the case of C82A A111C A120C A145U C150U C169U U176A, the reverse-splicing fitness is reported as 0.0135. Variant C82A A111C A120C A145U C150U C169U U176C has a reverse-splicing fitness of 0.0133. For C82A A111C A120C C150G C169U, the reverse-splicing fitness was 0.0115. C82A A111C A120C C150G C169G gave a reverse-splicing fitness of 0.00682. C82A A111C A120C C150G C169A showed a reverse-splicing fitness of 0.00831. C82A A111C A120G showed a reverse-splicing fitness of 0.0149. Variant C82A A111C A120C A145U C150G has a reverse-splicing fitness of 0.00822. For C82A A111C A120C A145U C150U, the reverse-splicing fitness was 0.0202. C82A A111C A120C A145U C150A showed a reverse-splicing fitness of 0.00979. C82A A111C A120G A145C C150U showed a reverse-splicing fitness of 0.00926. With C82A A111C A120G A145C C150A the reverse-splicing fitness was 0.00818. In the case of C82A A111C A120G A145C C150G, the reverse-splicing fitness is reported as 0.00724. With C82A A111C A120C A145G C150U the reverse-splicing fitness was 0.0241. C82A A111C A120G A145C C150U U176A showed a reverse-splicing fitness of 0.00894. C82A A111C A120G A145C C150U U176G gave a reverse-splicing fitness of 0.00502. For C82A A111C A120G A145C C150U U176C, the reverse-splicing fitness was 0.0119. For C82A A111C A120G A145C C150A C169A U176A, the reverse-splicing fitness was 0.01. Work on C82A A111C A120G A145C C150A C169A U176C yielded a reverse-splicing fitness of 0.00778. C82A A111C A120G A145C C150A C169A U176G showed a reverse-splicing fitness of 0.00603. Variant C82A A111C A120G A145C C150G C169A has a reverse-splicing fitness of 0.00757. With C82A A111C A120G A145C C150G C169G the reverse-splicing fitness was 0.00683. For C82A A111C A120G A145C C150G C169U, the reverse-splicing fitness was 0.00668. C82A A111C A120G A145G C150G C169A gave a reverse-splicing fitness of 0.00875. Work on C82A A111C A120G A145G C150G C169G yielded a reverse-splicing fitness of 0.00706. For C82A A111C A120G A145G C150G C169U, the reverse-splicing fitness was 0.00877. With C82A A111C A120C A145U C169G the reverse-splicing fitness was 0.0102. For C82A A111C A120C A145U C169U, the reverse-splicing fitness was 0.0133. With C82A A111C A120C A145U C169A the reverse-splicing fitness was 0.00864. In the case of C82A A111C A120G A145G C169A U176A, the reverse-splicing fitness is reported as 0.0215. C82A A111C A120G A145G C169A U176G gave a reverse-splicing fitness of 0.00509. Variant C82A A111C A120G A145G C169A U176C has a reverse-splicing fitness of 0.0288. For C82A A111C A120C A145U C150A U176A, the reverse-splicing fitness was 0.0112. For C82A A111C A120C A145U C150A U176G, the reverse-splicing fitness was 0.00638. For C82A A111C A120C A145U C150A U176C, the reverse-splicing fitness was 0.0164. With C82A A111C A120C A145G C150U C169A U176C the reverse-splicing fitness was 0.0162. C82A A111C A120C A145G C150U C169A U176G gave a reverse-splicing fitness of 0.00826. Variant C82A A111C A120C A145G C150U C169A U176A has a reverse-splicing fitness of 0.0159. Variant C82A A111C A120C C150G has a reverse-splicing fitness of 0.0074. For C82A A111C A120C C150A, the reverse-splicing fitness was 0.0114. In the case of C82A A111C A120C C150U, the reverse-splicing fitness is reported as 0.0169. Variant C82A A111C A120C A145G C150U C169U has a reverse-splicing fitness of 0.0133. In the case of C82A A111C A120C A145G C150U C169A, the reverse-splicing fitness is reported as 0.0108. Variant C82A A111C A120C A145G C150U C169G has a reverse-splicing fitness of 0.00829. C82A A111C A120C C150U U176G gave a reverse-splicing fitness of 0.0074. With C82A A111C A120C C150U U176C the reverse-splicing fitness was 0.0187. Work on C82A A111C A120C C150U U176A yielded a reverse-splicing fitness of 0.0123. For C82A A111C A120C C150G C169A U176G, the reverse-splicing fitness was 0.00778. Variant C82A A111C A120C C150G C169A U176C has a reverse-splicing fitness of 0.0121. Work on C82A A111C A120C C150G C169A U176A yielded a reverse-splicing fitness of 0.00991. C82A A111C A120G A145G C150G U176C gave a reverse-splicing fitness of 0.0111. Variant C82A A111C A120G A145G C150G U176A has a reverse-splicing fitness of 0.00663. C82A A111C A120G A145G C150G U176G showed a reverse-splicing fitness of 0.00573. With C82A A111C A120G A145G C150A C169U U176A the reverse-splicing fitness was 0.0154. Work on C82A A111C A120G A145G C150A C169U U176C yielded a reverse-splicing fitness of 0.0139. With C82A A111C A120G A145G C150A C169U U176G the reverse-splicing fitness was 0.00632. C82A A111C A120C C169G showed a reverse-splicing fitness of 0.0083. In the case of C82A A111C A120C C169A, the reverse-splicing fitness is reported as 0.00922. C82A A111C A120C C169U gave a reverse-splicing fitness of 0.0124. C82A A111C A120G A145G C169G U176G gave a reverse-splicing fitness of 0.00491. Work on C82A A111C A120G A145G C169G U176C yielded a reverse-splicing fitness of 0.0266. Work on C82A A111C A120G A145G C169G U176A yielded a reverse-splicing fitness of 0.0211. With C82A A111C A120G A145G C150G C169G U176G the reverse-splicing fitness was 0.00603. Variant C82A A111C A120G A145G C150G C169G U176C has a reverse-splicing fitness of 0.0118. For C82A A111C A120G A145G C150G C169G U176A, the reverse-splicing fitness was 0.00968. C82A A111C A120G A145G C150U C169A U176A gave a reverse-splicing fitness of 0.016. In the case of C82A A111C A120G A145G C150U C169A U176C, the reverse-splicing fitness is reported as 0.0149. C82A A111C A120G A145G C150U C169A U176G gave a reverse-splicing fitness of 0.00613. C82A A111C A120C C150A C169U U176G gave a reverse-splicing fitness of 0.00868. Variant C82A A111C A120C C150A C169U U176A has a reverse-splicing fitness of 0.0173. C82A A111C A120C C150A C169U U176C gave a reverse-splicing fitness of 0.015. Variant C82A A111C A120C A145U C150G C169G U176A has a reverse-splicing fitness of 0.00819. Work on C82A A111C A120C A145U C150G C169G U176G yielded a reverse-splicing fitness of 0.00725. In the case of C82A A111C A120C A145U C150G C169G U176C, the reverse-splicing fitness is reported as 0.00621. Variant C82A A111C A120G A145U C150G C169A U176G has a reverse-splicing fitness of 0.00558. Variant C82A A111C A120G A145U C150G C169A U176C has a reverse-splicing fitness of 0.00969. C82A A111C A120G A145U C150G C169A U176A showed a reverse-splicing fitness of 0.00941. C82A A111C A120C A145G C150G C169U U176C gave a reverse-splicing fitness of 0.0109.
